{"source": "paper PMC5606850", "about": "“Acidic C-terminal domains autoregulate the RNA chaperone Hfq” (eLife, 2017)", "molecules": {"B1": {"name": "Bacillus subtilis Hfq: Hfq of Bacillus subtilis (protein, UniProt O31796 1-73, looked up)", "RNA-binding protein Hfq": "MKPINIQDQFLNQIRKENTYVTVFLLNGFQLRGQVKGFDNFTVLLESEGKQQLIYKHAISTFAPQKNVQLELE"}, "B2": {"name": "D16-FAM·R16 (dsRNA)", "RNA 1": "CGAAUUUUUUAAGUGC", "RNA 2": "GCACUUAAAAAAUUCG"}, "B3": {"name": "CTD-FITC (fluorescently-labeled E. coli Hfq CTD peptide) (peptide)", "peptide": "{FITC-Ahx}-NNAGGGTSSNYHHGSSAQNTSAQQDSEETE-OH", "notes": "Hfq, E. coli, C-terminal domain peptide; lacks residues 65-72 of the CTD region; also called CTD-FITC peptide"}, "B4": {"name": "ChiX·chiP sRNA-mRNA pair (mixed)", "RNA 1": "GGGACACCGUCGCUUAAAGUGACGGCAUAAUAAUAAAAAAAUGAAAUUCCUCUUUGACGGGCCAAUAGCGAUAUUGGCCAUUUUUUU", "RNA 2": "GUAGUCAGCGAGACUUUUCUCAACGCUACUUUUUUAAUUUUUAUUUUUUCGCUGUUCACCUUUGGUGCAGCAAUUUAUACGUCAAAGAGGAUUAACCCAUGCGUACGUUUAGUGGC"}}, "key": {"[1]": {"target": "T1, Hfq65 (Hfq core, CTD deleted) (Escherichia coli, UniProt P0A6X3 1-65)", "test": "fluorescence anisotropy; Hill 0.6; asterisked value, footnote not in material (possibly earlier work); Anisotropy: 10 mM Tris-HCl pH 7.5, 50 mM NaCl, 50 mM KCl, 30 C; CTD-FITC competition: 50 mM Tris-HCl pH 7.5, 30 C; pUC19 EMSA: 40 mM Tris-HCl pH 7.5, 0.14 mM EDTA, 35 mM NH4Cl, 3.7% glycerol, 25 C (competition legend 30 C)", "details": "protein: recombinant; tags: untagged; chain copies: 6; label: 5' FAM"}, "Hfq102 (wild-type Hfq) [2]": {"target": "T2, Hfq102 (wild-type Hfq) (Escherichia coli, UniProt P0A6X3 1-102)", "test": "fluorescence anisotropy; Hill 0.7; asterisked value, footnote not in material (possibly earlier work); Anisotropy: 10 mM Tris-HCl pH 7.5, 50 mM NaCl, 50 mM KCl, 30 C; CTD-FITC competition: 50 mM Tris-HCl pH 7.5, 30 C; pUC19 EMSA: 40 mM Tris-HCl pH 7.5, 0.14 mM EDTA, 35 mM NH4Cl, 3.7% glycerol, 25 C (competition legend 30 C)", "details": "protein: recombinant; tags: untagged; chain copies: 6; label: 5' FAM"}, "[3]": {"target": "T1, Hfq65 (Hfq core, CTD deleted)", "test": "competition; displaces CTD-FITC peptide; stronger than length trend; Anisotropy: 10 mM Tris-HCl pH 7.5, 50 mM NaCl, 50 mM KCl, 30 C; CTD-FITC competition: 50 mM Tris-HCl pH 7.5, 30 C; pUC19 EMSA: 40 mM Tris-HCl pH 7.5, 0.14 mM EDTA, 35 mM NH4Cl, 3.7% glycerol, 25 C (competition legend 30 C)", "details": "protein: recombinant; tags: untagged; chain copies: 6; minRCRB-like hairpin at 5' end"}, "[4]": {"system": "RNA molecular beacon and Target RNA", "details": "ref Zheng et al., 2016; cited from earlier work"}, "Hfq102 (wild-type Hfq) [5]": {"target": "T2, Hfq102 (wild-type Hfq)", "test": "competition; vs pUC19 EMSA; strong; Anisotropy: 10 mM Tris-HCl pH 7.5, 50 mM NaCl, 50 mM KCl, 30 C; CTD-FITC competition: 50 mM Tris-HCl pH 7.5, 30 C; pUC19 EMSA: 40 mM Tris-HCl pH 7.5, 0.14 mM EDTA, 35 mM NH4Cl, 3.7% glycerol, 25 C (competition legend 30 C)", "details": "protein: recombinant; tags: untagged; chain copies: 6"}, "Hfq102 (wild-type Hfq) [6]": {"target": "T2, Hfq102 (wild-type Hfq)", "test": "fluorescence anisotropy; Hill 1.2; Anisotropy: 10 mM Tris-HCl pH 7.5, 50 mM NaCl, 50 mM KCl, 30 C; CTD-FITC competition: 50 mM Tris-HCl pH 7.5, 30 C; pUC19 EMSA: 40 mM Tris-HCl pH 7.5, 0.14 mM EDTA, 35 mM NH4Cl, 3.7% glycerol, 25 C (competition legend 30 C)", "details": "protein: recombinant; tags: untagged; chain copies: 6; label: 5' FAM on strand 1; blunt"}, "E. coli Hfq65-R16A": {"target": "T3, E. coli Hfq65-R16A (E. coli, UniProt P0A6X3 1-65, R16A)", "T3 construct": "Hfq, E. coli, core residues 1-65, rim mutation R16A; Untagged; made by site-directed mutagenesis of pET21b-Hfq", "test": "fluorescence polarisation; 45 nM FITC-labelled peptide titrated with Hfq65 or variant (0–100 µM Hfq monomer), 50 mM Tris·HCl pH 7.5 (low salt), 30 °C, duplicate, single-site isotherm; Kd in Hfq monomer", "details": "both partners purified"}, "E. coli Hfq65-Q35A": {"target": "T4, E. coli Hfq65-Q35A (E. coli, UniProt P0A6X3 1-65, Q35A)", "T4 construct": "Hfq, E. coli, core residues 1-65, mutation Q35A; Untagged; made by site-directed mutagenesis of pET21b-Hfq", "test": "fluorescence polarisation; 45 nM FITC-labelled peptide titrated with Hfq65 or variant (0–100 µM Hfq monomer), 50 mM Tris·HCl pH 7.5 (low salt), 30 °C, duplicate, single-site isotherm; Kd in Hfq monomer", "details": "both partners purified"}, "E. coli Hfq65-K47A": {"target": "T5, E. coli Hfq65-K47A (E. coli, UniProt P0A6X3 1-65, K47A)", "T5 construct": "Hfq, E. coli, core residues 1-65, rim mutation K47A; Untagged; made by site-directed mutagenesis of pET21b-Hfq", "test": "fluorescence polarisation; 45 nM FITC-labelled peptide titrated with Hfq65 or variant (0–100 µM Hfq monomer), 50 mM Tris·HCl pH 7.5 (low salt), 30 °C, duplicate, single-site isotherm; Kd in Hfq monomer", "details": "both partners purified"}, "E. coli Hfq65-R19D": {"target": "T6, E. coli Hfq65-R19D (E. coli, UniProt P0A6X3 1-65, R19D)", "T6 construct": "Hfq, E. coli, core residues 1-65, rim mutation R19D; Untagged; made by site-directed mutagenesis of pET21b-Hfq", "test": "fluorescence polarisation; 45 nM FITC-labelled peptide titrated with Hfq65 or variant (0–100 µM Hfq monomer), 50 mM Tris·HCl pH 7.5 (low salt), 30 °C, duplicate, single-site isotherm; Kd in Hfq monomer", "details": "both partners purified"}, "[7]": {"target": "T1, Hfq65 (Hfq core, CTD deleted)", "test": "EMSA; 33.3 nM hexamer, 10 C; most stable ternary complex; Anisotropy: 10 mM Tris-HCl pH 7.5, 50 mM NaCl, 50 mM KCl, 30 C; CTD-FITC competition: 50 mM Tris-HCl pH 7.5, 30 C; pUC19 EMSA: 40 mM Tris-HCl pH 7.5, 0.14 mM EDTA, 35 mM NH4Cl, 3.7% glycerol, 25 C (competition legend 30 C)", "details": "protein: recombinant; tags: untagged; chain copies: 6; label: 32P on ChiX; partial RNA-RNA duplex"}, "Hfq102 (wild-type Hfq) [8]": {"target": "T2, Hfq102 (wild-type Hfq)", "test": "EMSA; 33.3 nM hexamer, 10 C; less ternary complex than Hfq65; Anisotropy: 10 mM Tris-HCl pH 7.5, 50 mM NaCl, 50 mM KCl, 30 C; CTD-FITC competition: 50 mM Tris-HCl pH 7.5, 30 C; pUC19 EMSA: 40 mM Tris-HCl pH 7.5, 0.14 mM EDTA, 35 mM NH4Cl, 3.7% glycerol, 25 C (competition legend 30 C)", "details": "protein: recombinant; tags: untagged; chain copies: 6; label: 32P on ChiX; partial RNA-RNA duplex"}, "Hfq102 (wild-type Hfq) [9]": {"target": "T2, Hfq102 (wild-type Hfq)", "test": "fluorescence anisotropy; Hill 1.4; asterisked value, footnote not in material (possibly earlier work); Anisotropy: 10 mM Tris-HCl pH 7.5, 50 mM NaCl, 50 mM KCl, 30 C; CTD-FITC competition: 50 mM Tris-HCl pH 7.5, 30 C; pUC19 EMSA: 40 mM Tris-HCl pH 7.5, 0.14 mM EDTA, 35 mM NH4Cl, 3.7% glycerol, 25 C (competition legend 30 C)", "details": "protein: recombinant; tags: untagged; chain copies: 6; label: Cy3; hairpin with 5' overhang"}, "Hfq102 (wild-type Hfq) [10]": {"target": "T2, Hfq102 (wild-type Hfq)", "test": "competition; vs pUC19 EMSA; good; Anisotropy: 10 mM Tris-HCl pH 7.5, 50 mM NaCl, 50 mM KCl, 30 C; CTD-FITC competition: 50 mM Tris-HCl pH 7.5, 30 C; pUC19 EMSA: 40 mM Tris-HCl pH 7.5, 0.14 mM EDTA, 35 mM NH4Cl, 3.7% glycerol, 25 C (competition legend 30 C)", "details": "protein: recombinant; tags: untagged; chain copies: 6"}}, "note": "*: point of attachment. FITC = O=C1OC2(c3ccc(O)cc3Oc3cc(O)ccc32)c2ccc(NC(=S)*)cc21; Ahx = NCCCCCC(=O)O"}
{"molecule": "CGAAUUUUUUAAGUGC (ssRNA)", "note": "[D16-FAM]", "values": [{"measurement": "Kd", "setting": "[1]", "result": "20 ± 1.3", "unit": "nM hexamer"}, {"measurement": "Kd", "setting": "Hfq102 (wild-type Hfq) [2]", "result": "15.5 ± 0.9", "unit": "nM hexamer"}]}
{"molecule": "TATCCGTATGACGTTCCGGACTATGCGGCTAAGGGGCAATCTTTAC (structured_DNA)", "note": "[DNA1]", "values": [{"measurement": "binding result", "setting": "[3]", "result": "binds"}]}
{"molecule": "B1", "values": [{"measurement": "in vitro RNA annealing activity", "setting": "[4]", "result": "inactive"}]}
{"molecule": "GUGGUCAGUCGAGUGGAAAAAAAAAAAAAAAAAA (ssRNA)", "note": "[Target-A18]", "values": [{"measurement": "binding result", "setting": "Hfq102 (wild-type Hfq) [5]", "result": "binds"}]}
{"molecule": "B2", "values": [{"measurement": "Kd", "setting": "Hfq102 (wild-type Hfq) [6]", "result": "117 ± 12", "unit": "nM hexamer"}]}
{"molecule": "B3", "values": [{"measurement": "binding result", "setting": "E. coli Hfq65-R16A", "result": "binds"}, {"measurement": "binding result", "setting": "E. coli Hfq65-Q35A", "result": "binds"}, {"measurement": "binding result", "setting": "E. coli Hfq65-K47A", "result": "binds"}, {"measurement": "binding result", "setting": "E. coli Hfq65-R19D", "result": "binds"}]}
{"molecule": "B4", "values": [{"measurement": "binding result", "setting": "[7]", "result": "binds"}, {"measurement": "binding result", "setting": "Hfq102 (wild-type Hfq) [8]", "result": "binds"}]}
{"molecule": "CUUCCGUCCAUUUCGGACG (structured_RNA, 5' Thiol-C6)", "note": "[minRCRB-Cy3]", "values": [{"measurement": "Kd", "setting": "Hfq102 (wild-type Hfq) [9]", "result": "13.9 ± 1.5", "unit": "nM hexamer"}]}
{"molecule": "GUGGUCAGUCGAGUGGUUUUUU (ssRNA)", "note": "[Target-U6]", "values": [{"measurement": "binding result", "setting": "Hfq102 (wild-type Hfq) [10]", "result": "binds"}]}
